Each block holds one binder with its values, some of them ahead of it. *1 amine or outer side, *2 acyl side, *3 side chain or, on linkers, in order; H or OH if unused. Bridges are numbered along the chain shown (N, C = ends). Primed or numbered codes have the meaning given here. [ ]: non-standard residue; d: D form. Phe(4-(2-acetylaminoethoxy))″ = 4-(2-acetylaminoethoxy)phenylalanine, CC(=O)NCCOc1ccc(C[C@H](N[*:1])C(=O)[*:2])cc1; Phe(4-OMe)(4) = O-methyl-L-tyrosine, COc1ccc(C[C@H](N[*:1])C(=O)[*:2])cc1; 2Nal = N[C@@H](Cc1ccc2ccccc2c1)C(=O)O; AEF = NCCOc1ccc(C[C@H](N)C(=O)O)cc1; Cit = NC(=O)NCCC[C@H](N)C(=O)O; αMeOrn = C[C@](N)(CCCN)C(=O)O; Pen = CC(C)(S)[C@H](N)C(=O)O; αMeK = C[C@](N)(CCCCN)C(=O)O; Orn = NCCC[C@H](N)C(=O)O; Dab = NCC[C@H](N)C(=O)O; Abu = CC[C@H](N)C(=O)O; Dap = NC[C@H](N)C(=O)O; Aib = CC(C)(N)C(=O)O
Experiments:
Rat IL-23R_huFC (rat) = Rat IL-23R_huFC (rat) (UniProt F1LX96); test: rat IL-23R competitive binding ELISA
IL23R_huFC (human) [1] = biological target: IL23R_huFC (human) (UniProt Q5VWK5); test: IL23-IL23R competitive binding ELISA
Target sequence in this assay (Q5VWK5 24-353 limits assumed): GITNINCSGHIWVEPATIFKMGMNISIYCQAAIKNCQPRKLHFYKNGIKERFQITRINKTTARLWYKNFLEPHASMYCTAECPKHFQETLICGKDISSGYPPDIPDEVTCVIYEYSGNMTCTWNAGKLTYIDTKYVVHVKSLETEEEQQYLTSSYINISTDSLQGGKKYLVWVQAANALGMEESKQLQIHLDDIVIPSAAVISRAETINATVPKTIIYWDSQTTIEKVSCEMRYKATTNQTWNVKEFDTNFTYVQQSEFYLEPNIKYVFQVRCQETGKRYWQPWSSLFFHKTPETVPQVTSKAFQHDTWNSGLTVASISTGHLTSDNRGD

IL23R_huFC (human) [2] = biological target: IL23R_huFC (human) (UniProt Q5VWK5); test: human ELISA vs IL-23
Target sequence in this assay (Q5VWK5 24-353): as the sequence (Q5VWK5 24-353 limits assumed) above

Binder: XQTWQXYXXENG (Ac; Pen-Pen disulfide; 1-Nal; α-MeOrn; NH2) [Ac-[Pen]-QTWQ-[Pen]-Y-[1-Nal]-[α-MeOrn]-ENG-NH2]
IC50 (Rat IL-23R_huFC (rat)): 100 to 1000 nM
IC50 (IL23R_huFC (human) [1]): 100 to 1000 nM

Binder: XQTWQXFXXKNG (Ac; Pen-Pen disulfide; Phe(4-OMe); 2-Nal; α-MeOrn; Lys(Ac); NH2) [Ac-[Pen]-QTWQ-[Pen]-[Phe(4-OMe)]-[2-Nal]-[α-MeOrn]-[Lys(Ac)]-NG-NH2]
IC50 (IL23R_huFC (human) [1]): 100 to 1000 nM

Binder: XQTWQXYXXENG (Ac; Pen-Pen disulfide; 2-Nal; α-MeOrn; NH2) [Ac-[Pen]-QTWQ-[Pen]-Y-[2-Nal]-[α-MeOrn]-ENG-NH2]
IC50 (Rat IL-23R_huFC (rat)): 100 to 1000 nM
IC50 (IL23R_huFC (human) [1]): 25 to 100 nM

Binder: Ac-[Pen][Dap](Ac)TWQ[Pen][Phe(4-(2-acetylaminoethoxy))″][2Nal][αMeK](Ac)ENG-NH2 (disulfide 1-6 (inferred)) [Ac-[Pen]-Dap(Ac)TWQ-[Pen]-[Phe[4-(2-acetylaminoethoxy)]-[2-Nal]-[α-MeLys(Ac)]-ENG-NH2]
IC50 (IL23R_huFC (human) [1]): 10 to 25 nM

B1: [Ac-[Pen]-NTWQ-[Pen]-[Phe(4-CONH2)]-[2-Nal]-[Aib]-KNN-NH2]2DIG (peptide)
peptide: XNTWQXFXXKNN
modifications: Ac; Pen-Pen disulfide; Phe(4-CONH2); 2-Nal; Aib; NH2; DIG linker joins the two subunits
IC50 (Rat IL-23R_huFC (rat)): 10 to 25 nM
IC50 (IL23R_huFC (human) [1]): < 10 nM

Binder: XQTWQXFXXKNN (Ac; Pen-Pen disulfide; Phe[4-(2-aminoethoxy)]; 2-Nal; Aib; Lys(Ac); NH2) [Ac-[Pen]-QTWQ-[Pen]-[Phe[4-(2-aminoethoxy)]-[2-Nal]-Aib-[Lys(Ac)]-NN-NH2]
IC50 (IL23R_huFC (human) [1]): < 10 nM

B2: [Ac-[Pen]-NTWQ-[Pen]-[Phe(4-CONH2)]-[2-Nal]-[Acvc]-KNN-NH2]2DIG (peptide)
peptide: XNTWQXFXXKNN
modifications: Ac; Pen-Pen disulfide; Phe(4-CONH2); 2-Nal; Acvc; NH2; DIG linker joins the two subunits
IC50 (Rat IL-23R_huFC (rat)): 10 to 25 nM
IC50 (IL23R_huFC (human) [1]): < 10 nM

Binder: XNTWQXFXXKNN (Ac; Pen-Pen disulfide; Phe[4-(2-aminoethoxy)]; 2-Nal; Aib; Lys(Ac); NH2) [Ac-[Pen]-NTWQ-[Pen]-[Phe[4-(2-aminoethoxy)]-[2-Nal]-[Aib]-[Lys(Ac)]-NN-NH2]
IC50 (Rat IL-23R_huFC (rat)): < 10 nM
IC50 (IL23R_huFC (human) [1]): < 10 nM

Binder: XNTWQXFXXKNA (Ac; Pen-Pen disulfide; Phe[4-(2-aminoethoxy)]; 2-Nal; Aib; Lys(Ac); βAla; NH2) [Ac-[Pen]-NTWQ-[Pen]-[Phe[4-(2-aminoethoxy)]-[2-Nal]-[Aib]-[Lys(Ac)]-N-[βAla]-NH2]
IC50 (Rat IL-23R_huFC (rat)): 10 to 25 nM

B3: Ac-[Pen]-QTWQ-[Pen]-[2-Nal]-[2-Nal]-[α-MeLys]-ENG-NH2 (peptide)
peptide: Ac-[Pen]QTWQ[Pen][2Nal][2Nal][αMeK]ENG-NH2
modifications: disulfide 1-6
SMILES: CC(=O)N[C@@H]1C(=O)N[C@@H](CCC(N)=O)C(=O)N[C@@H]([C@@H](C)O)C(=O)N[C@@H](Cc2c[nH]c3ccccc23)C(=O)N[C@@H](CCC(N)=O)C(=O)N[C@H](C(=O)N[C@@H](Cc2ccc3ccccc3c2)C(=O)N[C@@H](Cc2ccc3ccccc3c2)C(=O)N[C@@](C)(CCCCN)C(=O)N[C@@H](CCC(=O)O)C(=O)N[C@@H](CC(N)=O)C(=O)NCC(N)=O)C(C)(C)SSC1(C)C
IC50 (Rat IL-23R_huFC (rat)): 100 to 1000 nM
IC50 (IL23R_huFC (human) [1]): 100 to 1000 nM

Binder: XQTWQXFXXENN (Ac; Pen-Pen disulfide; Phe[4-(2-acetylaminoethoxy)]; 2-Nal; Aib; NH2) [Ac-[Pen]-QTWQ-[Pen]-[Phe[4-(2-acetylaminoethoxy)]-[2-Nal]-[Aib]-ENN-NH2]
IC50 (IL23R_huFC (human) [1]): 10 to 25 nM

Binder: XQTWQXFXXKNN (Ac; Pen-Pen disulfide; Phe[4-(2-acetylaminoethoxy)]; 2-Nal; Aib; Lys(Ac); NH2) [Ac-[Pen]-QTWQ-[Pen]-[Phe[4-(2-acetylaminoethoxy)]-[2-Nal]-[Aib]-[Lys(Ac)]-NN-NH2]
IC50 (IL23R_huFC (human) [1]): < 10 nM

Other lines, results leading:

IC50 (IL23R_huFC (human) [2]): 25 to 100 nM
Binder: Ac-[Abu]QTWQC[AEF][2Nal][Orn][Dap](Ac)NG-NH2 (thioether 1-6) [Ac-Cyclo-[[Abu]-QTWQC]-[Phe[4-(2-aminoethoxy)]]-[2-Nal]-[Orn]-[Dap(Ac)]-NG-NH2]

IC50 (Rat IL-23R_huFC (rat)): 25 to 100 nM
IC50 (IL23R_huFC (human) [1]): < 10 nM
Binder: Ac-[Pen][Dap]TWQ[Pen][AEF][2Nal][αMeK]ENG-NH2 (disulfide 1-6 (inferred)) [Ac-[Pen]-[Dap]-TWQ-[Pen]-[Phe[4-(2-aminoethoxy)]-[2-Nal]-[α-MeLys]-ENG-NH2]

IC50 (IL23R_huFC (human) [1]): 100 to 1000 nM
Binder: Ac-[Pen][αMeOrn]TWQ[Pen][AEF][2Nal][αMeK]ENG-NH2 (disulfide 1-6 (inferred)) [Ac-[Pen]-[α-MeOrn]-TWQ[Pen]-[Phe[4-(2-aminoethoxy)]-[2-Nal]-[α-MeLys]-ENG-NH2]

IC50 (IL23R_huFC (human) [2]): 10 to 25 nM
Binder: Ac-[Abu]QTWQC[AEF][2Nal][Aib]E[Dap](Ac)G-NH2 (thioether 1-6) [Ac-Cyclo-[[Abu]-QTWQC]-[Phe[4-(2-aminoethoxy)]]-[2-Nal]-[Aib]-E-[Dap(Ac)]-G-NH2]

IC50 (IL23R_huFC (human) [2]): 25 to 100 nM
Binder: Ac-[Abu]QTWQC[AEF][2Nal][Orn][Dap]NG-NH2 (thioether 1-6) [Ac-Cyclo-[[Abu]-QTWQC]-[Phe[4-(2-aminoethoxy)]]-[2-Nal]-[Orn]-[Dap]-NG-NH2]

IC50 (IL23R_huFC (human) [2]): 100 to 1000 nM
Binder: Ac-[Abu]QTWQC[Phe(4-OMe)(4)][2Nal][Orn][Dap]NG-NH2 (thioether 1-6) [Ac-Cyclo-[[Abu]-QTWQC]-[Phe(4-OMe)]-[2-Nal]-[Orn]-[Dap]-NG-NH2]

IC50 (IL23R_huFC (human) [1]): < 10 nM
Binder: XQTWQXFXXENN (Ac; Pen-Pen disulfide; Phe[4-(2-aminoethoxy)]; 2-Nal; Aib; NH2) [Ac-[Pen]-QTWQ-[Pen]-[Phe[4-(2-aminoethoxy)]-[2-Nal]-[Aib]-ENN-NH2]

IC50 (IL23R_huFC (human) [2]): < 10 nM
Binder: Ac-[Abu]QTWQC[AEF][2Nal][Aib]E[Dab](Ac)G-NH2 (thioether 1-6) [Ac-Cyclo-[[Abu]-QTWQC]-[Phe[4-(2-aminoethoxy)]]-[2-Nal]-[Aib]-E-[Dab(Ac)]-G-NH2]

IC50 (IL23R_huFC (human) [1]): 100 to 1000 nM
Binder: Ac-[Pen][αMeOrn](Ac)TWQ[Pen][Phe(4-(2-acetylaminoethoxy))″][2Nal][αMeK](Ac)ENG-NH2 (disulfide 1-6 (inferred)) [Ac-[Pen]-[α-MeOrn(Ac)]-TWQ-[Pen]-[Phe[4-(2-acetylaminoethoxy)]-[2-Nal]-[α-MeLys(Ac)]-ENG-NH2]

IC50 (IL23R_huFC (human) [2]): 10 to 25 nM
Binder: Ac-[Abu]QTWQC[AEF][2Nal][Cit][Dap]NG-NH2 (thioether 1-6) [Ac-Cyclo-[[Abu]-QTWQC]-[Phe[4-(2-aminoethoxy)]]-[2-Nal]-[Cit]-[Dap]-NG-NH2]
